# In patent US20190113512A1 (MIT, published 2019):
# B1: rcSso7d.H1BA.3 (designed binder)
# chain: MATVKFTYQGEEKQVDISKIKHVIRNGQYIIFAYDEGGGAYGGGWVSEKDAPKELLQMLEKQ
# notes: also called 1.E2.2
# B2: rcSso7d.H2BA.2 (designed binder)
# chain: MATVKFTYQGEEKQVDISKIKYVGRWGQNIGFAYDEGGGAYGYGGVSEKDAPKELLQMLEKQ
# B3: rcSso7d.Rv1656 (yeast-surface displayed) (designed binder)
# chain: MATVKFTYQGEEKQVDISKIKWVRRYGQYIGFSYDEGGGAWGKGYVSEKDAPKELLQMLEKQ
# notes: also called rcSso7d.H4.2; H4.2
# Columns and labels:
# H6BA = H6BA (Mycobacterium tuberculosis); test: yeast-surface display flow cytometry, specificity test
# H1BA = H1BA (Mycobacterium tuberculosis); test: as above
# H2BA [1] = target: T1, H2BA (Mycobacterium tuberculosis); test: as above
# H7BA = H7BA (Mycobacterium tuberculosis); test: as above
# H2BA [2] = target: T1, H2BA; test: yeast-surface display; validated conditions not given
# [3] = target: T2, streptavidin Alexa Fluor 647 (UniProt P22629 37-163); test: yeast-surface display flow cytometry, secondary reagent alone, geometric MFI
# T2 construct: also called SA-AF647; streptavidin-AF 647
# T2 sequence (P22629 37-163 limits assumed): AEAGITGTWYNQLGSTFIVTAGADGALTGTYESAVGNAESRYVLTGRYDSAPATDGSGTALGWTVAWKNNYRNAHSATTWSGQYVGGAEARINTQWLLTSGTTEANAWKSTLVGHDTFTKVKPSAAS
binder,measurement,setting,value
B1,% positive,H6BA,0.9%
same,% positive,H1BA,71.5%
same,% positive,H2BA [1],0.9%
same,% positive,H7BA,1.3%
B2,binding result,H2BA [2],binds
B3,binding result,[3],no binding
